Columns and labels:
MCF-7/HER2 cells = experiment: MTT assay, MCF-7/HER2 cells; format: cell-based, human; conditions: MCF-7/HER2, 10 μg/mL pRNA and 1 μM tamoxifen, 48 h
Method: (§1) FIGS. 10A-10D. Evidence that pRNA-HER2apt-siMED1 nanoparticles silenced MED1 expression and sensitized two other HER2+ breast cancer cells to tamoxifen treatment. FIG. 10A) Two HER2-overexpressing breast cancer cell lines MCF7/TAM and FIG. 10B) MCF7/HER2, were treated with 10 μg/mL pRNA-HER2apt-siMED1 nanoparticles or scramble control for 48 h, and then MED1 protein level was determined using western blots. FIG. 10C) MCF7/TAM and FIG. 10D) MCF7/HER2 cells were treated with 10 μg/mL pRNA nanoparticles and/or 1 μM tamoxifen (TAM) as indicated for 48 h, and then cell growth was determined using an MTT assay.
Since MED1 has recently been reported to play key roles in tamoxifen resistance of human breast cancer, the combinational effects of pRNA-HER2apt-siMED1 nanoparticles with tamoxifen on the growth and metastatic potential of BT474 cells was examined. […] The combinational effect of pRNA-HER2apt-siMED1 nanoparticles with tamoxifen treatment on two other HER2-overexpressing breast cancer cells MCF-7/HER2 and MCF-7/TAM were also confirmed (FIGS. 10C-D).

MED1 = MED1 protein level by western blots in MCF-7/TAM cells; format: cell-based, human; conditions: 10 μg/mL, 48 h
Method: as §1
Next, the ability of pRNA-HER2apt-siMED1 nanoparticles to silence the expression of MED1 in BT474 and MDA-MB-231 human breast cancer cells was examined. Using real-time PCR analyses, a significant depletion of nearly 70% of MED1 mRNA in BT474 cells after pRNA-HER2apt-siMED1 but not pRNA-HER2apt^mut-siMED1 treatment was found (FIG. 3A).

recombinant Dicer enzyme = target: T1, recombinant Dicer enzyme (Homo sapiens, UniProt Q9UPY3); experiment: Digestion with recombinant Dicer enzyme, siRNA release; format: biochemical; conditions: 1 μg pRNA nanoparticles, 37° C., 12 h
T1 construct: purchased Genlantis
T1 sequence (Q9UPY3 whole entry): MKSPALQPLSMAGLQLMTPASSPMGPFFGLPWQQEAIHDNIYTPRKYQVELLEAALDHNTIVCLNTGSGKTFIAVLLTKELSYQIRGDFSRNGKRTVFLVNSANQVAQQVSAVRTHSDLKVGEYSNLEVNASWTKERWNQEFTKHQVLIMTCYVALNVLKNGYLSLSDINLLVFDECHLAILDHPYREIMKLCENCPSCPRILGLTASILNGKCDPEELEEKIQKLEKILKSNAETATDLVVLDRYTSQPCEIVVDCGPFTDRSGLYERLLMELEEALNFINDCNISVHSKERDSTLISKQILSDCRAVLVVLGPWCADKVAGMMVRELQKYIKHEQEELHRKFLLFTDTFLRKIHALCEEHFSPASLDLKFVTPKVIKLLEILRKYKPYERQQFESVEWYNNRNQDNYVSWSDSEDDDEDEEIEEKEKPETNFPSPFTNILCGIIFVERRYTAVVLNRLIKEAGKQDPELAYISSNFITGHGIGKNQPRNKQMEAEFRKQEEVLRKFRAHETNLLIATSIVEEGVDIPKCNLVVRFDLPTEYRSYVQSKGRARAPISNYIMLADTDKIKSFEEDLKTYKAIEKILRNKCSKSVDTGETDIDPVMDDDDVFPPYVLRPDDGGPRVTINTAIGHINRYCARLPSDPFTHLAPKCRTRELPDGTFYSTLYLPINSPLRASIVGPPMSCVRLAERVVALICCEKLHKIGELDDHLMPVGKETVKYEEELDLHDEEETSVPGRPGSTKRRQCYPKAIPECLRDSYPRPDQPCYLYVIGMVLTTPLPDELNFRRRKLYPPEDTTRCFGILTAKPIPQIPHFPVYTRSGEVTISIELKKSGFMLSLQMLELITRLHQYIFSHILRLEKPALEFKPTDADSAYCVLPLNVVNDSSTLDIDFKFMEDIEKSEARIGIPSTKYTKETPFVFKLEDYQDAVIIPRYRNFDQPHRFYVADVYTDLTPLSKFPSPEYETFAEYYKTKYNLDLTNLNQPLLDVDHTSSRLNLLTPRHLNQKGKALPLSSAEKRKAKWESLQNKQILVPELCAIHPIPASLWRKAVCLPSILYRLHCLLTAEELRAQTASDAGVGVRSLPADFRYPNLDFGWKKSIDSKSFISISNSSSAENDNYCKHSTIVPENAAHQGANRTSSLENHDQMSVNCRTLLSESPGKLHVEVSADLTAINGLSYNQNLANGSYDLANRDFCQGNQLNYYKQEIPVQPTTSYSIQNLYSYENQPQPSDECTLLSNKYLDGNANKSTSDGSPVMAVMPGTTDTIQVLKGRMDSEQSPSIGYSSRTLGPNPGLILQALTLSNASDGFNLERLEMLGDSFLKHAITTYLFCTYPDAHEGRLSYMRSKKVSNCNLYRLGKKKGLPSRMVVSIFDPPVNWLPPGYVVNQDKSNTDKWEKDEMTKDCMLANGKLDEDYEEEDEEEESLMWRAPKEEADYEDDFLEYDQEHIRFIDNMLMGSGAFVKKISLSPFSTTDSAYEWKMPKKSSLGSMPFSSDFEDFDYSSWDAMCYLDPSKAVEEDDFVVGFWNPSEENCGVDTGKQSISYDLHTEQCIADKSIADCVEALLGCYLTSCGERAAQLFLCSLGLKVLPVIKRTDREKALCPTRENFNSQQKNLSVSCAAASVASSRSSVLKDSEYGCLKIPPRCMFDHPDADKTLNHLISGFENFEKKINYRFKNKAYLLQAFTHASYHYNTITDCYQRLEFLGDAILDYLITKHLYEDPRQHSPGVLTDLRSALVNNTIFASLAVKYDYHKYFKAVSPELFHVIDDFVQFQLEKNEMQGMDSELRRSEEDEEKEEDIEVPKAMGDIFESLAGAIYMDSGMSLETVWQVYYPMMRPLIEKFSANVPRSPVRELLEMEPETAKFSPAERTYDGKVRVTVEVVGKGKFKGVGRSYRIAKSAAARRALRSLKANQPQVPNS
Method: FIG. 7A) Six HER2-targeting RNA aptamers were selected from previous literatures, and their secondary structures were predicted using Srna-fold software. FIG. 7B) Six p2 strands containing the six different HER2 RNA aptamers were synthesized and annealed with the same p1 strand to generate six different pRNA-HER2apt-MED1 siRNA nanoparticles, respectively, followed by examination using 8% native PAGE gel electrophoresis. FIG. 7C) BT474 cells were treated with above pRNA nanoparticles for 48 h, and then MED1 protein level was determined by western blotting. […] FIG. 7D) 1 μg pRNA nanoparticles were incubated with recombinant Dicer enzyme (Genlantis) at 37° C. for 12 h, the product was separated by 8% native PAGE gel.
Next, the pRNA nanoparticles were digested with recombinant Dicer enzyme (Genlantis) ^34 to confirm the release of siRNAs as indicated by the generation of 21-23 bp small RNAs after digestion (FIG. 7D).

[1] = Biosafety during therapeutic treatment (body weight, organ H&E histopathology); format: in vivo, athymic nude mice
Method: FIG. 12A) During therapeutic treatment to orthotopic xenograft mouse models, the body weights of mice were recorded every three days. FIG. 12B) After therapeutic treatment, major organs were excised, fixed in 10% neutral formalin buffer, embedded in paraffin, sectioned and examined for histopathology by H&E staining. Scale bar: 100 μm.
Migration and metastasis assay. The 8-μm-pore-size polycarbonate membrane, which separates the two chambers of a 6.5-mm Transwell (Costar), was coated with or without 1:8 DMEM-diluted Matrigel (Corning). […] Cells at top side of membranes were removed completely, and cells at the bottom side were examined with an Olympus SZX12 microscope and counted. • Mammosphere culture and breast cancer stem cell analyses. […] After treatment with or without 1 μM 4-OHT for 7 days, mammosphere formation was recorded using an Axiovert S100 TV inverted microscope (Zeiss). […] After resuspension with 0.5 mL PBS buffer, CD44^+/CD24^−/low cell population was analyzed by flow cytometry. • Orthotopic xenograft breast tumor mouse model, in vivo imaging and anti-tumor therapy. […] The tumor volume was monitored every 3 days, and tumor size was calculated using the formula: volume=0.5×(width)^2×(length). […]

B1: pRNA-HER2apt-siMED1: 3-WJ pRNA nanoparticle bearing a HER2-targeting RNA aptamer and two different MED1 siRNAs; strands p1 SEQ ID NO: 3, p2 SEQ ID NO: 4 (nucleic acid)
chain 1: GGACAGUGAAAGUGAGUCAAAGGAUCAAUCAUGGCCAAAGAUGUUACUUUGAGAGCCUU
chain 2: GGCUCUCAAAGUAACAUCUAAGGCCAUGUGUAUGUGGGGGGAGGACGAUGCGGUCUGCUGUGCUUGAUAUGCCCCAGACGACUCGCCCCCCACAUACUUUGUUGAUCCAAUGACUCACUUUCACUGUCCUU
modifications: 2'-F modification; third strand may lack entry; pRNA-HER2apt-siMED1, p1; pRNA-HER2apt-siMED1, p2
For B1, the “combinational effect with tamoxifen on cell growth” value (MCF-7/HER2 cells) was “confirmed”, the MED1 silencing (MED1) was “confirmed” and the “small RNAs generated after Dicer digestion (release of siRNAs)” value (recombinant Dicer enzyme) was 21-23 bp. The “histopathology of heart, liver, spleen, lung and kidney” value ([1]; H&E staining after therapeutic treatment) was “no evidence of any apparent organ injury or disturbance” and the mouse body weight ([1]; entire treatment period, systemic administration) was “no significant reduction”.

Source: patent US11110182B2, “Multifunctional RNA nanoparticles and methods for treating cancer and therapeutic resistant cancer” (University of Cincinnati, priority 2016, dated 2021)
